# Source: patent US20230392126A1, “TISSUE ORGANOIDS” (priority 2016, published 2023)
# B1: hBChE: modified human butyrylcholinesterase (E30-6, SEQ ID NO: 41), cocaine hydrolase, expressed from engineered epidermal cells / skin grafts (protein)
# chain: MHSKVTIICIRFLFWFLLLCMLIGKSHTEDDIIIATKNGKVRGMNLTVFGGTVTAFLGIPYAQPPLGRLRFKKPQSLTKWSDIWNATKYANSCCQNIDQSFPGFHGSEMWNPNTDLSEDCLYLNVWIPAPKPKNATVLIWIYGGGFQTGTSSLHVYDGKFLARVERVIVVSMNYRVGALGFLALPGNPEAPGNMGLFDQQLALQWVQKNIAAFGGNPKSVTLFGESSGAASVSLHLLSPGSHSLFTRAILQSGSANAPWAVTSLYEARNRTLNLAKLTGCSRENETEIIKCLRNKDPQEILLNEAFVVPYGTALGVNFGPTVDGDFLTDMPDILLELGQFKKTQILVGVNKDEGTWFLVGGAPGFSKDNNSIITRKEFQEGLKIFFPGVSEFGKESILFHYTDWVDDQRPENYREALGDVVGDYNFICPALEFTKKFSEWGNNAFFYYFEHRSSKLPWPEWMGVMHGYEIEFVFGLPLERRDNYTKAEEILSRSIVKRWANFAKYGNPNETQNNSTSWPVFKSTEQKYLTLNTESTRIMTKLRAQQCRFWTSFFPKVLEMTGNIDEAEWEWKAGFHRWNNYMMDWKNQFNDYTSKKESCVGL
# modifications: Human mutant BChE
# Columns and labels:
# [1] = system: mouse epidermal stem cells; assay: Cell proliferation and differentiation of engineered mouse epidermal cells in vitro (cell cycle FACS, calcium shift western blot); assay type: cell-based
# Experimental: Primary human neonatal epidermal keratinocytes were obtained from Thermo Fischer® (C0015C), and cultured with Epilife® medium (Thermo Fischer, M-EPICF-500) with manufacturer's recommended procedures. Calcium shift was performed to induce differentiation of primary keratinocytes by increasing the calcium concentration in culture media to 1.5 mM.
# Propidium iodide (PI) staining followed by flow cytometry were used to determine the effect of cell cycle profiles. Mouse and human epidermal cells were cultured in two 6 cm cell culture dish for 24 hours, respectively. Cells were trypsinized, and 1×10^5 cells from each dish were collected, followed by one PBS wash. […] After staining, the cells were analyzed immediately using flow cytometer BD FACSCanto™ II (BD Biosciences, San Jose, CA) with an excitation wavelength at 488 nm and emission at 585 nm. DNA content and histograms of cell cycle distribution were analyzed using FlowJo™ software, version 10 (FLOWJO LLC, OR).
# Western blotting was performed as described previously (Blanpain et al.). […] Visualization and quantification was carried out with the LI-COR Odyssey® scanner and software (LI-COR Biosciences).
# Propidium iodide (PI) staining followed by flow cytometry were used to determine the effect of cell cycle profiles. […] DNA content and histograms of cell cycle distribution were analyzed using FlowJo™ software, version 10 (FLOWJO LLC, OR). […]
# human epidermal cells = assay type: cell-based
# [2] = Acute drug overdose test: METH-induced lethality; assay type: in vivo, mouse; conditions: 34, 68, 100, 160 mg/kg METH i.p.
# Experimental: For all behavioral experiments except where noted, C57BL/6J mice were used. Roughly equal numbers of adult male and female mice were group-housed until surgery. Mice were maintained under controlled temperature and humidity conditions on a 12 h:12 h light:dark cycle (lights on at 7:00). Water and food were available ad libitum. Mice weighed around 25-30 g at the beginning of the experiments. All procedures followed National Institutes of Health Guide for the Care and Use of Laboratory Animal and were approved by the University of Chicago Institutional Animal Care and Use Committee.
# Drug: Cocaine HCl and methamphetamine HCl (Sigma-Aldrich, Saint Louis, MO) were dissolved in sterile saline and delivered intraperitoneally at appropriates doses in a volume of 10 mL/kg. […]
# Acute drug overdose test: Two weeks after grafting surgery, 4 groups of GhBChE and 4 groups of GWT mice (n=8 each in each group) received i.p. injections of cocaine at 40, 120, and 160 mg/kg. […] Mice were monitored for 2 h following injection and percent of cocaine- and METH-induced lethality was calculated.
# To first determine whether engrafting hBChE-expressing cells protects mice from acute systemic toxicity of cocaine, we delivered different doses of cocaine to grafted mice and calculated the lethality rates of cocaine. […]
# [3] = Cocaine hydrolysis activity in vitro (clearance assay with conditioned medium)
molecule,measurement,setting,value
B1,effect of expression on cell proliferation / differentiation in vitro,[1],did not significantly change cell proliferation
same,hBChE production,human epidermal cells,strong hBChE production
same,"METH-induced lethality, GhBChE vs GWT",[2],no difference in lethality
same,cocaine hydrolysis activity of conditioned medium,[3],significantly induced degradation of cocaine in vitro
